# Test: soluble on expression in E. coli; label from the status in PepcDB or PDB records
row,Sequence,soluble on expression in E. coli
1,MTGEKLLYIETFGCQMNVSDSEKVASLLRGEGYSQTPDSSEADLIIVNTCSVRAKAEHKVYSYLGRFRKLKRDRRLLLGVGGCVAQQEGERLLKRVPWLDLVFGTHNLHLLPEMVRAAEQGERRAAVDFIDNEARLDLFPQADEGGGVTRFVTVMQGCDNFCSYCIVPYVRGREISRRSVEIIGEIRSAVAGGVREVTLLGQNVNSYGLKTPGELSFAGLLREISAIDGLERIRFTTSHPKDISPELIACFAELPKLCGHIHLPAQAGSDSILARMNRGYTRQEYLEKVAALRAARPEILITGDIIVGFPGETEADFLQTLSLMEEVRYTDIFSFAYSPRPETAAASLGDRIMRKETTERLERVQGLQRDMTIERHAGFVGTCQAVLVEGMSKRGDQLYGRTDGNLIVNFAGNPSLAGSLVDVRITRGYPNSLLGELAVFQ,soluble
2,MGSDKIHHHHHHMYLGIDVGGTHTDAVVLDAQKRIQAWAKVPTLHHDLLSSVTQALDSVLQSVAAQDIVRLNLSTTLSTNAIVESKTEDVGVLVSSGPGIDPENFRQGGFFFPLSGSIDHRGKVIAAMEQDELAAAVRRCCDSGIRVYAAVGKFSTRNPDHEETMAHEAMQCGDFVSMGHRLSGQLSFPRRVATAYYNSAVWRLYNSFADAVESSARAKGVTAPVHILKADGGTMPLAVSRRMPVESILSGPAASVMGIVALYDIREDAVILDIGGTTTDIALFASGSPVIENDGISVGSYPTLVRALRTLSIGVGGDSRLRIAAGAVRVGPDRSGPCVANGGTHVALMDAMNYLEVAAVGDVEASREAVRQLASLWDMYPEKLAREALDTAVNTICAAVDRLLDEVNAQPVYTIIELLDGVKLNPGRVFVMGGPAAAFAPLLRNVMNRRIDVPRDHAVANAVGAALTRTTAELELFADTEKGLVFVPTLGLRREAPLGYNLDDAVADAGRYLTESLAGMGIHIRPEDVDVLEAGSFNMVDMYGGKGRNIRVKCQVRPGISL,not soluble
3,MIQTPYYLIDADRLRQNMAVVDRLRQASGAKALLALKCFATWPAFEHMRDHMDGTTSSSLYELRLGREKFGKETHAYSVAWPDHEIDEAVGYADKIIFNSVGQLARFRNRTGGIARGLRLNPGLSTSGFDLADPARPFSRLGEWSAEKIEAVLPDISGVMIHYNCENADVDLFERQLSEIEGRFGAILDRLDWVSLGGGIHFTGEGYPVDRLAARLKAFAAAHGVQVYLEPGEAAITRSATLEVTVLDLLDNGKQLAIVDSSVEAHMLDLLIYRQSAKVEPDAGDHSYMVCGKSCLAGDIFGEFRFAQPLQVGDRLSIADAAGYTMVKKNWFNGVKMPSIVIREPDGSLRVAREFGYGDYASSLG,not soluble
4,MPTLRFRQKVVHKLNNSGIIARPKTVIHPIKMKTTLIAAAEVDRLETWQRYTSNMCHGCHSTCCTLPVEVKIKDLIRIGVVDEFEKDEPPKNVAKRLQKEGIIERFNQKSGIFTLTRMSNDDCMYLDRKSRLCTIYDKRPDTCRNHPKVGPRPGYCAYKPKVVGRLEHHHHHH,not soluble
5,HTDPGDVVIEELFNRIPETSVWNENERVLSNANHLVSTALWRNEQSFRVESELGERPRTLVRGPVLRDDGSYICLEATDQETGEPLEVHVPYFTERPPSNAIKQLSEQVLRLRLLRGIKNQRQAKAYLRFIFPIDLVKDPKKRKMIRVRLDERDMWVLSRFFLYPRMQSNLHILGDVLLSHSSTHKSLVHHARLQLTLQLIRLAASLQHYGLVHADFQVRNILLDQRGGVFLTGFEHLVRDGASAVSPIGRGFAPPETTAERMLPYRQHHPTLMTFPFDTWTLGLAIYWIWCADLPNTEDAELGGIEWIYRRCKNIPQPVRALLEGFLRYSKEDRLLPLQAMETSEYEQLRTELSAVLPLYQTDGEPA,soluble
6,MNLVALAQLILFVLRNLNLKPRKHKPEEIALAIAAYVMGVQITKLNIPPSTLYYYTRKLGVKRRKDVRPRCPSCNSDRVIKNGSSRGKSKYKCKVCGRTFYGTASHRMSREQRERILREYTNRMSLRGISKVEGRPLTTVYSSVKRAALKAYVDLSILQAQLKAFRSKFAVLDESWTYVRVRRGPRRQNLWIWNALIDGVPFFVTGDRDYNTFRLLWLSLPKCEVHYTDDYPIYQVLYHHVVGKKYTHTVESYNSFCRSHLARLARDTKAVNRSRAMIDYSLALLNVMYPQVFTDEKTPLNLAYLSGVQYIRDHLILEHHHHHH,soluble
7,MAVAPTAREENVYMAKLAEQAERYEEMVEFMEKVSNSLGSEELTVEERNLLSVAYKNVIGARRASWRIISSIEQKEESRGNEEHVNSIREYRSKIENELSKICDGILKLLDAKLIPSAASGDSKVFYLKMKGDYHRYLAEFKTGAERKEAAESTLTAYKAAQDIATTELAPTHPIRLGLALNFSVFYYEILNSPDRACNLAKQAFDEAIAELDTLGEESYKDSTLIMQLLRDNLTLWTSDMQDDGADEIKEDPKPDEAKN,soluble
8,MGSDKIHHHHHHMPAIAFIDISGSPFQAGQALGRFGASAVRDHLLHTDAWRSVMRWRGTEQAALMAAQVQARFPRIWDELKGLADGLGLPLEDTFLWNCRGDVWAMSPDGCTTVQVPGAHRRRISHNEDGDPGFSGHCAIAQCHIAGSPGFASFVYPGSLPGHTFAATELGLAMTVNNLRYRNTTAGVPRMVLTRAVLDAPDLDKALAVLRDNPHAGGFHLTLGHCRSTALLSVEFSAYGCSVLDITQTSMHANHAIHPQMRDHPQIVTGSSGHRQMRGDTVIADAARDGREIDPLELLADTAHPSFPIYRDDPHDSDGENTQATADMRVGPTCIEWEVYEQPGTAPRYRMINGHTREEDATDAGARPDVQSRH,not soluble
9,MIEFKNVSKHFGPTQVLHNIDLNIRQGEVVVIIGPSGSGKSTLLRCINKLEEITSGDLIVDGLKVNDPKVDERLIRQEAGMVFQQFYLFPHLTALENVMFGPLRVRGVKKEEAEKQAKALLAKVGLAERAHHYPSELSGGQQQRVAIARALAVKPKMMLFDEPTSALDPELRHEVLKVMQDLAEEGMTMVIVTHEIGFAEKVASRLIFIDKGRIAEDGSPQALIENPPSPRLQEFLQHVS,not soluble
10,MAHHHHHHMEGEEVPLVQPFRQHREQCRVKLQEIGPRMTLQLSKVENGFAGGEVIYHRTEKKTLREVQVNASKVRARKTEKAKRRALQDENVQRKRQKREDKLERKHQRREAAAEAQQANPFEVAHGDGDGDGYAAGDEE,not soluble
11,SRMVLRGLLSEHPKKQMIPVIIYGAGRSGRQLLEAVKQMREYSAAAFVDDDPKLWHTVIYDLAVYQPDAIAFLIERYGVEKILLAIPGATQEQRRRIINKLEAYPCEVLTIPGMKDLMDGKISIGTLKKISVSDLLGRDSVAPDDRLMSADIEGKTVMVTGAGGSIGSELCRQIIRRRPEKLLLFELSEFALYAIEKELRETCIQKRLDTEILPFLGSVQNRTLLE,not soluble
12,MLSEETIRVIKSTVPLLKEHGTEITARMYELLFSKYPKTKELFAGASEEQPKKLANAIIAYATYIDRLEELDNAISTIARSHVRRNVKPEHYPLVKECLLQAIEEVLNPGEEVLKAWEEAYDFLAKTLITLEKKLYSQP,soluble
13,MSEIVIRHAETRDYEAIRQIHAQPEVYCNTLQVPHPSDHMWQERLADRPGIKQLVACIDGDVVGHLTIDVQQRPRRSHVADFGICVDSRWKNRGVASALMREMIEMCDNWLRVDRIELTVFVDNAPAIKVYKKFGFEIEGTGKKYALRNGEYVDAYYMARVK,not soluble
14,MSLNAPRIIGVIVPDIVTHFFASILNGIENMAIDNGYFVIITTSHESFEHEKRNIENLVNMRVEGIIACLSQETTDFSHFAALKEINMPLILFDRVCLTDQFSSVIADGAQSAQMATQHLLDNGSKRVAFIGGANHLDIVKRRKHGYLEALRDNRIPIEKELVVCRKIDYEEGQIATETLLSLPQPPDAILAMNDTLAFAAMEVIKRHGLRIPDDIAIIGYTDEQHANYVEPKLSAVSHQTYKMGETACQLLIDQIKGDRTVKQVVIPTHLQIRESSIEGHHHHHH,soluble
15,MNNHNCFLTPLQQKFMQILSDYERDPKSIQIHEESDQMDVVISYFKLLLAEKSRLLQYGQANFSVHLIDEEIGRLFMAPISMADIGILEECGREALRFTDLGAMFSDSDDSMHSDEDEVTLTESIRIPVETYPTYNFIGRIIGPRGTTAKQLEKDTGCRIMIRGNHSNKMYGNALHKTHGDGSQDAIDLPLRVIVETSGPRREATARITAALETVQVLLVPPPDGRDELKRRQLVELAIMNGTYRPSCSRIDHN,not soluble

# Source: the DeepSol protein solubility set
